From patent publication US20190031771A1 (University of Pennsylvania, published 2019)
Numbering of substitutions follows the chain as printed.

T1: human ADAMTS13 (human, UniProt Q76LX8 75-1427)
T1 sequence (looked up): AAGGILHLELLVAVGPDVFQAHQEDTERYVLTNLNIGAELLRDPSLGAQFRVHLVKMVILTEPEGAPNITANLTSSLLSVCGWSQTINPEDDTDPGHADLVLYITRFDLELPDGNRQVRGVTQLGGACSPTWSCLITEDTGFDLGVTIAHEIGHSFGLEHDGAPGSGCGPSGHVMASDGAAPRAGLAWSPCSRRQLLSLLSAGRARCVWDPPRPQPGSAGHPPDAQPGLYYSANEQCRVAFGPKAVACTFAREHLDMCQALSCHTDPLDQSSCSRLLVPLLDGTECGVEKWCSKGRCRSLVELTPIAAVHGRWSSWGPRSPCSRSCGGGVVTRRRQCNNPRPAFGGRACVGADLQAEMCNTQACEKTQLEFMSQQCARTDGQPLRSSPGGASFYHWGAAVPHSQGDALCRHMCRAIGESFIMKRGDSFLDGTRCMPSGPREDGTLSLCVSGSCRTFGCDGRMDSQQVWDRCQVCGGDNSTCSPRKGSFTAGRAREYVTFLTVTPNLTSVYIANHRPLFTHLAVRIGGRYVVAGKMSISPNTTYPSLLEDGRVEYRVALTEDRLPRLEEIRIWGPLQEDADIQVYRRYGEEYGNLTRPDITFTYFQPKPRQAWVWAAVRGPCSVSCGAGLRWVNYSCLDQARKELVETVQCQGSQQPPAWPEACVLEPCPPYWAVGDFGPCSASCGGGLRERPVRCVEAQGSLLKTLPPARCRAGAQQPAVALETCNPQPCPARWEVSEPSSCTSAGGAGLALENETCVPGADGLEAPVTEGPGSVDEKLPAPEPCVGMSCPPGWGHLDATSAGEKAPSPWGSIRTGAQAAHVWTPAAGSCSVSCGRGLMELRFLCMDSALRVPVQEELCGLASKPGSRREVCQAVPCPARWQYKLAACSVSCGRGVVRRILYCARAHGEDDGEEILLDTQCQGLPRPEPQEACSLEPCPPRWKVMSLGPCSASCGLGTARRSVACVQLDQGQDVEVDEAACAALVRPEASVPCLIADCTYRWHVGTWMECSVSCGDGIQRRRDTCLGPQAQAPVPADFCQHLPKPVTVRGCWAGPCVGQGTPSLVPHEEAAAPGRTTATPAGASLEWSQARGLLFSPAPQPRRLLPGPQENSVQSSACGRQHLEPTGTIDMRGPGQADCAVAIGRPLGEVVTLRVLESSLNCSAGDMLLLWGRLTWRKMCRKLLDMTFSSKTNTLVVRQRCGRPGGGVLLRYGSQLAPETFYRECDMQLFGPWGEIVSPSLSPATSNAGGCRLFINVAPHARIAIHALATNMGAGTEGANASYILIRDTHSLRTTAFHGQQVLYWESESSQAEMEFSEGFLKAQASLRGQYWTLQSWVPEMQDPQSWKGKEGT

B1: scFv 1-416 (scFv, V domains shown)
VH: QVQLVQSGAEVKKPGSSVRVSCTASGSNFSSHTINWVRQAPGQGLEWMGKVIPVLDISKHAQTFLGRVIITADKSTSTAYLELSSLRSEDTAIYYCAMDSVYGNFDFWGQGTLVTVSS
VL: ELVLTQPPSVSVSPGQTARITCSGDAFPKHYAYWYQQKPGQAPVLVIYKDTERPSGIPERFSGSSSGTTATLTISGVQAEDEADYYCQSTDSSDTWVFGAGTKVTVL
B2: scFv 1-420 (scFv, V domains shown)
VH: QVQLVQSGAEVKKPGSSVKVSCKASGGAFTMYTINWVRQAPGRGLEWMGRIIPILGITDYAQKFQGRGTITADKSTSTAYLELSGLTSEDTAVYYCAREFSGGNYFDFWGQGTLVTVSS
VL: ELELTQPPSVSISPGKTAKIFCGGNSIGRKSVHWYQQKPGQAPVLVVYDDSDRPSGIPERFSGSNSGNTATLTISRVEAGDEADYYCQVWDSSSDYVVFGGGTKLTVL
B3: scFv 3-302 (scFv, V domains shown)
VH: QVQLVQSGAEVKRPGSSVKVSCKASGNTFSNYHINWVRQAPGQGLQWMGGIIPILGRTNYAQNFQGRVTITTDESTNTAYMELTSLRSEDTAVYYCAREARDSFDFWGQGTMVTVSS
VL: ELVLTQPPSVSVSPGQTASITCSGDKLGHTYTSWYQQKPGQSPVLVIYQDNRRPSGLPERFSGSNSGNTATLTISRVEAGDEADYYCQVWESSSDHLVFGGGTELTVL
B4: scFv 1-438 (scFv, V domains shown)
VH: QVQLVQSGAEVKKPGSSVKVSCKASGGTFSNYDITWVRQAPGQGLEWVGKVIPILDVTNYAQKFQGRVTITADKSTSTAYMELSNLTSEDTAVYFCARFLWGLDVWGQGTMVTVSS
VL: ELVLTQPPSVSVAPGQTARITCGGNNIGSKSVHWYQQKPGQAPVLVVYDDSDRPSGIPERFSGSNSGNTATLTISRVEAGDEADYYCQVWDSSSDHKVFGGGTELTVL
B5: scFv 2-103 (scFv, V domains shown)
VH: QVQLVQSGAEVKKPGSSVKVSCKASGGTFSSYDINWVRQAPGQGLEWMGSIIPILGISNYAQKFQGRVTITADKSTSTAYMELSSLRSEDTAVYYCARDQGYANNYGAYWGQGTLVTVSS
VL: B4 VL with L45V, K97W
B6: scFv 2-102 (scFv, V domains shown)
VH: B5 VH with K23R, D33T, S50R, I51V, I52V, I57V, S58T, Q100K, A103D
VL: B4 VL with L4V, K30I, S31N, D52A, S93R, H96Y, K97W, E104K, L105V
B7: scFv 3-301 (scFv, V domains shown)
VH: EVQLVQSGAEVKKPGSSVKVSCKASGGTFSSYAISWVRQAPGQGLEWMGGIIPILGITNYAQKFQGRVTITADESTGAAYMELSSLASEDTAVYYCARDDTGRDDYFEYWGQGTLVTVSS
VL: ELVLTQPPSVSVSPGQTARITCSGDALPKQYAYWYQQKPGQAPVLVIYKDSERPSGIPERFSGSSSGTTVTLTISGVQAEDEADYYCQSADSNGTYKVFGGGTELTVL
B8: scFv 1-303 (scFv, V domains shown)
VH: QVQLVQSGAEVKKFGSSVKVSCKASGGTFSSYTMSWVRQAPGQGLEWMGSFIPILERANYAQKFQGRVTLTADKSTSTAYMELGSLRSEDTAVYYCARDLGDFGDSWGQGTLVTVSS
VL: B4 VL with V3E, Q16K, K97Y, G101T, E104K, L105V
B9: scFv 1-434 (scFv, V domains shown)
VH: QVQLVQSGAEVKKPGSSVKVSCKASGGSFSDYTIIWLRQARGHGLEWMGKIVPILGVTTYAQEFQGRITITADRSTSTAYMELSSLRSEDTAVYYCARFLWGLDVWGQGTTVTVSS
VL: B4 VL with K97V
B10: scFv 3-405 (scFv, V domains shown)
VH: B3 VH
VL: B4 VL with Q16K, G24E, V47I, D49Y, S51T, E59A, H96Q, K97R
B11: scFv z1-303 (scFv, V domains shown)
VH: QVQLQESGPGLVRPSQTLSLTCAISGDSVSNNNAAWNWIRQSPSRGLEWLGRTFYRSRWYNDYAVSVKSRIIINPDTSKNQFSLDLTSVTPEDTAVYFCAREGQWLPNYFDPWGQGTLVTVSS
VL: B4 VL with R76G, A79V, S94R, K97V
B12: scFv 4-307 (scFv, V domains shown)
VH: QVQLVQSGAEVKKPGSSVKVSCKASGGTFSTYTINWMRQAPGQGLEWMGRIIPMFGTANYAQKFRGRVTITADESTSTAYMELSSLISEDTAIYYCARSGYSDAFDIWGQGTMVTVSS
VL: B4 VL with Q16T, V47I, D49Y, H96Q, K97G, E104Q
B13: scFv 2-302 (scFv, V domains shown)
VH: EVQLVQSGAEVKKPGSSVKVSCKASGGTFSSYTINWVRQAPGQGLEWMGRIIPILGIENYAQKFQGRVTISADKSTSTAYMELSSLRSDDTAVYYCARDQVFGAYWGPGTLVTVSS
VL: ELVLTQPPSVSVAPGQTAIITCGGSNIGTKSVHWYQQKSGQAPVLVVHDDAHRPSGIPERFSGSNSGNTATLTISRVEAGDEADYYCQVWESSSDHWVFGGGTKVTVL
B14: scFv 3-305 (scFv, V domains shown)
VH: B3 VH
VL: B4 VL with Q16K, K97W, E104Q
B15: scFv 1-406 (scFv, V domains shown)
VH: B8 VH with T28M, M34I, A40G, T69S, L70F, R87T, Y95F, L100V
VL: ELELTQPPSVSVFPGQTARITCSGDTLPKQYGNWYQQKPGQAPVVVIYKDTERPSGIPERFSGSSSGTTATLTISGVQAEDEADYYCQSADSNDWVLFGGGTKLTVL
B16: scFv 4-303 (scFv, V domains shown)
VH: QVQLVQSGAEVKKPGSSVKVSCKASGGTFSNYGISWVRQAPGQGLEWMGKIIPILGITNYAQKFQGRVTITADKSTSTAYMELSSLRSEDTAVYYCARGGGSYDFFDYWGQGTLVTVSS
VL: ELELTQPPSVSVAPGKAARLSCGGEDIGIKSVHWYQQKTGRAPVLVIYNDDDRPSGIPERFAGSNSGNTATLTISRVEAGDEADYYCEVWDSLTDRVVFGGGTKLTVL
B17: scFv 1-403 (scFv, V domains shown)
VH: QVQLQESGGGVVQPGRSLRLSCAASGFTFRNYAMHWVRQAPGKGLEWVAVISYDGGKEYYADSVKGRFTISRDNSKNTLYLQMNSLRAEDTAVYYCARDTFSYYDFWRAFDYWGQGTLVTVSS
VL: ELVMTQSPSSLSASVGDTVTITCRASQSLRGYLNWYQQKPGEAPKLLIYAASTLRAGVPPRFSGAGYETDFSLTISNLQLEDFATYYCQQSHNVPLTFGGGTKVEIK

Each binder was assayed against T1, human ADAMTS13 (assay: cell-based or functional assay).

| Binder | % ADAMTS13 activity in presence of scFv inhibitor (no rabbit IgG) |
| --- | --- |
| B1 | 20% |
| B2 | 0% |

What follows are binders tested against T2, hemagglutinin ectodomain of influenza virus H1/PR/8/34 (influenza virus H1/PR/8/34, UniProt P03452 18-528) (assay: immunoassay or flow cytometry).
T2 construct: extracellular domain; also called HA H1/PR/8/34
T2 sequence (P03452 18-528): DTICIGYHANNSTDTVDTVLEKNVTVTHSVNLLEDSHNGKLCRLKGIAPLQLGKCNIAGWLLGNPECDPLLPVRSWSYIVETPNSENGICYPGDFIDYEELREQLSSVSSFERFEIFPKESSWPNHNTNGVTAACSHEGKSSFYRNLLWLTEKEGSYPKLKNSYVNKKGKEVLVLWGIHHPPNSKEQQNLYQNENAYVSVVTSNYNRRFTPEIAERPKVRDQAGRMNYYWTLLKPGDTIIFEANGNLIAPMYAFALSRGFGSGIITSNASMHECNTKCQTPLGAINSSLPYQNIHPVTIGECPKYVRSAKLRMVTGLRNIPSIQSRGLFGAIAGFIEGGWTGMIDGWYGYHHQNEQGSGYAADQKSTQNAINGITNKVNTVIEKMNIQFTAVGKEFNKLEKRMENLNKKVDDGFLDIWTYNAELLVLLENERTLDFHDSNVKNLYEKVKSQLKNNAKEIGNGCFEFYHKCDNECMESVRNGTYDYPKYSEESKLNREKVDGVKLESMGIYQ

| Binder | binding result |
| --- | --- |
| B3 | no binding |
| B4 | no binding |
| B5 | no binding |
| B6 | no binding |
| B1 | no binding |
| B7 | no binding |
| B2 | no binding |
| B8 | no binding |
| B9 | no binding |
| B10 | no binding |

Each binder was assayed against T1, human ADAMTS13 (assay: phage ELISA on ADAMTS13-coated plates (positive: >10-fold absorbance above background)).

| Binder | binding result |
| --- | --- |
| B3 | binds |
| B4 | binds |
| B11 | binds |
| B12 | binds |
| B13 | binds |
| B8 | binds |
| B14 | binds |
| B9 | binds |
| B10 | binds |
| B15 | binds |
| B16 | binds |
| B17 | binds |
